Paper PMC10145791

Legend:
VEGF-A165 (Homo sapiens) = VEGF-A165 (Homo sapiens) (UniProt P15692); settings: cited from earlier work
[1] = target: recombinant human neuropilin-1 (human) (UniProt O14786); test: SPR; SPRi, stage 1: mixtures of NRP-1 (1 ng/mL) with VEGF-A (0.01, 0.10, 1.00, 10.0 ng/mL) dropped onto the immobilised mouse monoclonal anti-NRP-1 antibody (200 ng/mL on cysteamine/gold); read-out is the free NRP-1 that the antibody captures (recovery %); pH 7.4, 10 min

recovery of free NRP-1 (1 ng/mL added) on the antibody with 0.01 ng/mL VEGF-A [1] [%]	recovery of free NRP-1 (1 ng/mL added) on the antibody with 0.10 ng/mL VEGF-A [1] [%]	recovery of free NRP-1 (1 ng/mL added) on the antibody with 1.00 ng/mL VEGF-A [1] [%]	recovery of free NRP-1 (1 ng/mL added) on the antibody with 10.0 ng/mL VEGF-A [1] [%]	Substance	Kd (VEGF-A165 (Homo sapiens)) [nM]
				neuropilin-1 soluble (from UniProt O14786)	7.5
98	85	36	< 1	vascular endothelial growth factor VEGFA (from UniProt P15692 1-395) (ligand)	
